The results in this text go back to patent publication US20250136677A1 (ZOETIS SERVICES, published 2025).

Assay [1] has as its target T1, wildtype feline IL-31 protein (Feline_IL31_wildtype) (feline).
T1 construct: Full length feline IL-31 with C-terminal His tag, secreted from ExpiCHO cells; also called fIL-31
T1 chain: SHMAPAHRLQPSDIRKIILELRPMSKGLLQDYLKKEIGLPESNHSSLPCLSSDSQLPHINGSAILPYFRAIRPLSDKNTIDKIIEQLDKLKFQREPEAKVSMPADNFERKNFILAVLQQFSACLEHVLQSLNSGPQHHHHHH
The experiment in a line: indirect ELISA, IL-31 protein coated. The protocol:
(§1) For the indirect ELISA method, antibody binding to wildtype and feline IL-31 15H05 mutant proteins was assessed. All nine canine monoclonal antibodies (ZIL1, ZIL8, ZIL8, ZIL11, ZIL69, ZIL94, ZIL154, ZIL159, and ZIL171) were capable of binding to wildtype feline IL-31 and binding was impacted by mutations in the mAb 15H05 epitope region confirming the correct binding phenotype determined during the initial screening used to identify them. In comparison, the 11E12 antibody bound to the wild-type feline IL-31 and its binding was not impacted by the mutations in the 15H05 epitope region as evidenced by the data in FIG. 4. To confirm binding, biacore analysis was performed using canine, feline, equine, human, feline 15H05 mutant, and feline 11E12 mutant IL-31 proteins as surfaces and a single test concentration of antibody. Similar to ELISA observations, all antibodies tested bound to wildtype feline IL-31. In agreement with the data described above in this section, mouse antibodies 11E12 and 15H05 both bound to canine and feline IL-31 surfaces. Three additional antibodies where shown to have this dual binding property, ZIL69 (partial canine binding), ZIL94, and ZIL159. From this group of nine fully canine antibodies, only ZIL1 and ZIL9 cross-reacted with equine IL-31. Of note, antibody 15H05 was the only one of all assayed herein that bound to canine, feline, and equine IL-31 indicating some level of epitope conservation across the three species. In contrast, none of the antibodies described herein bound to human IL-31. Additional biacore surfaces were used to verify ELISA observations showing differential binding of antibodies to wildtype feline IL-31 and two proteins with mutations in the 15H05 (15H05 mutant) or 11E12 (11E12 mutant) epitopes. […] In agreement with the ELISA results, all fully canine antibodies were impacted by the 15H05 mutation with the exception of ZIL94, ZIL154, and ZIL171 (partially affected). Differing results can be attributed to differences in the two assay methodologies.
In general terms: In an ELISA, binding on a coated surface is turned into a signal by an enzyme label.

Assay [2] has as its target T2, mutant feline IL-31 15H05 protein (Feline_IL31_15H05_mutant) (feline).
T2 construct: also called feline 15H05 mutant; 15H05 IL-31 mutant
T2 chain: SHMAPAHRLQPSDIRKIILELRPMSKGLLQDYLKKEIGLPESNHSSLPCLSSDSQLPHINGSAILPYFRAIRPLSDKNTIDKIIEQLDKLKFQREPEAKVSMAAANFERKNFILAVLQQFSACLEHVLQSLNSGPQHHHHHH
The experiment in a line: indirect ELISA, IL-31 protein coated. As for the experimental part: as §1

For assay [3], the target named is T3, mutant feline IL-31 11E12 protein (Feline_IL31_11E12_mutant) (feline).
T3 construct: also called feline 11E12 mutant; 11E12 IL-31 mutant
T3 chain: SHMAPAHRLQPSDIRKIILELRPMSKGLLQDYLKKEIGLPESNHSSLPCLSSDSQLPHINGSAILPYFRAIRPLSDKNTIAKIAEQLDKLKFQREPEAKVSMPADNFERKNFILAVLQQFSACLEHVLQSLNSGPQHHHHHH
Nature of the assay: SPR (Biacore), IL-31 surface, single antibody concentration.

The target in assay [4] is T4, equine IL-31 protein (Equine_IL31) (equine).
T4 construct: Recombinant equine IL-31
T4 chain: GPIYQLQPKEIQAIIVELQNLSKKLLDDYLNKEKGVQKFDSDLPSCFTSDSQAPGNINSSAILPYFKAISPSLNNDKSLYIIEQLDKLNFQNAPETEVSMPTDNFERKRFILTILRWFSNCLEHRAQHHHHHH
The description is as above.

The target of assay [5] is T5, human IL-31 (human, UniProt Q6EBC2 24-164).
T5 sequence: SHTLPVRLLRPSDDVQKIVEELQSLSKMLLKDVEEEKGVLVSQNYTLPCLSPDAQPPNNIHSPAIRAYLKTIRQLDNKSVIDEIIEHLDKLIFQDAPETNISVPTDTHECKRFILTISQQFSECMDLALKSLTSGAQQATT
Described as above.

The target in assay [6] is T6, mutant feline IL-31 15H05 protein (Feline_IL31_15H05_mutant) (feline).
T6 sequence: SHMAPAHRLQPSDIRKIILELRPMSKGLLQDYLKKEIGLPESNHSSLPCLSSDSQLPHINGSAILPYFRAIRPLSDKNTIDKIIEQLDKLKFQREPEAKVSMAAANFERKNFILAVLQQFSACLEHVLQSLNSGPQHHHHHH
Nature of the assay: indirect ELISA, IL-31 protein coated.

Assay [7] deals with T1, wildtype feline IL-31 protein …. Nature of the assay: cell-based or functional assay.
Assay [8] has the same target. Nature of the assay: SPR (Biacore), feline IL-31 (SEQ ID NO 157). As for the experimental part: The affinity with which candidate mAbs bind canine and feline IL-31 was determined using surface plasmon resonance (SPR) on a Biacore system (Biocore Life Sciences (GE Healthcare), Uppsala, Sweden). To avoid affinity differences associated with differential surface preparation that can occur when immobilizing antibodies to surfaces; a strategy was employed where IL-31 was directly conjugated to the surface. Immobilization was obtained by amine coupling 5 μg/mL IL-31 using N-hydroxysuccinimide (NHS)/1-Ethyl-3-(3-dimethylaminopropyl) carbodiimide (EDC) chemistry. Chips were quenched with ethanolamine and the affinity with which all candidate mAbs bound to the immobilized IL-31 was evaluated. All curves were fit to a 1:1 model. […] Results for affinity measurements are described herein.
Cellular potency was assessed using feline IL-31 to stimulate pSTAT3 signalling in FCFW4 cells. IC₅₀ vlaues were calculated for each antibody as described previously in this application. […] It is worth noting that both antibodies are considered potent with IC₅₀s in the range of those antibodies previously described herein from the 15H05 lineage (FIG. 3).

Assay [9] has the same target. Nature of the assay: cell-based or functional assay.
Assay [10] concerns the target T4, equine IL-31 protein (Equine_IL31). Nature of the assay: ELISA screening of hybridoma supernatants on equine IL-31.

Read-outs that look alike come from different tables or passages of the source.

B1: ZIL154 (recombinant fully canine antibody) (antibody, V domains shown)
VH: EVHLVESGGDLVKPWGSLRLSCVASGFTFSDRGMSWVRQSPGKGLQWVAYIRYDGSRTDYADAVEGRFTISRDNAKNTLYLQMNSLRAEDTAVYYCARWDGSSFDYWGQGTLVTVSS
VL: DIVVTQTPLSLSVSPGETASFSCKASQSLLHSDGNTYLDWFRQKPGQSPQRLIYKVSNRDPGVPDRFSGSGSGTDFTLRISGVEADDAGLYYCMQAIHFPLTFGAGTKVELKR
notes: Fully canine IgG; also called CAN-ZIL154
Consider B1, for which the entries for the “ELISA OD” value in assay [1] and in assay [2] were 1.62 OD and 1.38 OD, respectively. In addition, the binding result in [3] is given as “binds”; in [4], “no binding”; in [5], “no binding”.

B2: ZIL159 (recombinant fully canine antibody) (antibody, V domains shown)
VH: EVQLVESGGDLVKPAGSLRLSCVASGFTFSSYVMTWVRQAPGKGLQWVAGINSEGSRTAYADAVKGRFTISRDNAKNTLYLQIDSLRAEDTAIYYCATGDIVATGTSYWGQGTLVTVSS
VL: SNVLTQPPSVSVSLGQTATISCSGETLNRFYTQWFQQKAGQAPVLVIYKDTERPSGIPDRFSGSSSGNIHTLTISGARAEDEAAYYCKSAVSIDVGVFGGGTHLTVFR
notes: also called CAN-ZIL159
Take B2: the “ELISA OD” value in assay [1] stood at 1.6 OD; in [6], 1.31 OD. Moreover, the binding result in assay [3] and in [4] was “no binding” throughout.

B3: ZTS-5864 (antibody, V domains shown)
VH: DVQLVESGGDLVKPGGSLRLTCVASGFTFSDYAMSWVRQAPGKGLQWVAGIDSVGSGTSYADSVKGRFTISRDNAKNTLYLQMNSLKTEDTATYYCASGFPGSFEHWGQGALVTVSS
VL: QSVLTQPSSVSGTLGQRITISCTGSSSNIGSGYVGWYQQVPGMGPKTVIYYNSDRPSGVPDRFSGSKSGSSGTLTITGLQAEDEADYYCSVYDRTFNAVFGGGTHLTVLG
notes: see recheck
Take B3: the “IC50, feline IL-31 stimulated pSTAT3 signalling in FCFW4 cells, relative to ZTS-5865” value in [7] was ~3 fold. Moreover, in [8], the Kd (in general, a measure of binding affinity in units of concentration) was 0.571 nM and the kon (in general, the rate constant with which the complex forms) came out at 108000 M⁻¹ s⁻¹. For the same molecule, the “IC50, inhibition of feline IL-31 induced pSTAT3 in feline FCWF4 cells” value in [9] turned out to be 3.73 µg/ml.

B4: mouse anti equine IL-31 antibody 04H07 (antibody, V domains shown)
VH: QVQLQQPGAELVRPGASVKLSCKASGYTFTSYWMNWAKQRPGQGLEWIGMIDPSDSEIHYNQVFKDKATLTVDKSSSTAYMQLSSLTSEDSAVYYCARQDIVTTVDYWGQGTTLTVSS
VL: DIVMSQSPSSLAVSVGEKVTMSCKSSQSLLYSINQKNHLAWFQQKPGQSPKLLIYWASTRESGVPARFTGSGSGTDFTLTISSVKTEDLAVYYCQQGYTYPFTFGSGTKLEIK
notes: Mouse hybridoma antibody; also called Mu_04H07
With B4, the binding result in assay [10] was “binds”.

B5: mouse anti equine IL-31 antibody 06A09 (antibody, V domains shown)
VH: QVQLQQPGAELVRPGASVKLSCKAYGYTFTSYWMNWVKQRPGQGLEWIGMIDPSDSETHYNQIFRDKATLTIDKSSSTAYMQLSSLTSEDSAVYFCARQDIVTTVDYWGQGTTLTVSS
VL: DIVMSQSPSSLAVSVGEKVTMSCKSSQSLLYSINQKNFLAWYQQKPGQSPKLLIYWASTRESGVPDRFTGSGSGTDFTLTISSVKSEDLAVYYCQQHYGYPFTFGSGTKLEIK
notes: Mouse hybridoma antibody; also called Mu_06A09
With B5, the binding result in assay [10] is listed as “binds”.
